Results from article PMC3792123, “Role of Cysteines in the Stability and DNA-Binding Activity of the Hypochlorite-Specific Transcription Factor HypT” (PLoS ONE, 2013).

B1: HypT (wild-type, purified) (natural protein, E. coli, UniProt P39376 1-303, looked up)
chain: MDDCGAILHNIETKWLYDFLTLEKCRNFSQAAVSRNVSQPAFSRRIRALEQAIGVELFNRQVTPLQLSEQGKIFHSQIRHLLQQLESNLAELRGGSDYAQRKIKIAAAHSLSLGLLPSIISQMPPLFTWAIEAIDVDEAVDKLREGQSDCIFSFHDEDLLEAPFDHIRLFESQLFPVCASDEHGEALFNLAQPHFPLLNYSRNSYMGRLINRTLTRHSELSFSTFFVSSMSELLKQVALDGCGIAWLPEYAIQQEIRSGKLVVLNRDELVIPIQAYAYRMNTRMNPVAERFWRELRELEIVLS
notes: HypT (YjiE), HOCl-specific LysR-type transcription factor of E. coli; Oxidation (HOCl, NH2Cl, H2O2) gives a Cys4-Cys4 disulfide between two chains; also called YjiE; wild-type HypT; source: E. coli BL21 (DE3) gold, pET11a, purified (HisTrap, PD10 desalting); copies: 12
B2: HypT^C242S (natural protein, E. coli, UniProt P39376 1-303, looked up)
chain: MDDCGAILHNIETKWLYDFLTLEKCRNFSQAAVSRNVSQPAFSRRIRALEQAIGVELFNRQVTPLQLSEQGKIFHSQIRHLLQQLESNLAELRGGSDYAQRKIKIAAAHSLSLGLLPSIISQMPPLFTWAIEAIDVDEAVDKLREGQSDCIFSFHDEDLLEAPFDHIRLFESQLFPVCASDEHGEALFNLAQPHFPLLNYSRNSYMGRLINRTLTRHSELSFSTFFVSSMSELLKQVALDGSGIAWLPEYAIQQEIRSGKLVVLNRDELVIPIQAYAYRMNTRMNPVAERFWRELRELEIVLS
notes: HypT (YjiE) of E. coli, single mutant C242S; source: E. coli BL21 (DE3) gold, pET11a, purified (HisTrap, PD10 desalting)
B3: HypT^C178S (natural protein, E. coli, UniProt P39376 1-303, looked up)
chain: MDDCGAILHNIETKWLYDFLTLEKCRNFSQAAVSRNVSQPAFSRRIRALEQAIGVELFNRQVTPLQLSEQGKIFHSQIRHLLQQLESNLAELRGGSDYAQRKIKIAAAHSLSLGLLPSIISQMPPLFTWAIEAIDVDEAVDKLREGQSDCIFSFHDEDLLEAPFDHIRLFESQLFPVSASDEHGEALFNLAQPHFPLLNYSRNSYMGRLINRTLTRHSELSFSTFFVSSMSELLKQVALDGCGIAWLPEYAIQQEIRSGKLVVLNRDELVIPIQAYAYRMNTRMNPVAERFWRELRELEIVLS
notes: HypT (YjiE) of E. coli, single mutant C178S; source: E. coli BL21 (DE3) gold, pET11a, purified (HisTrap, PD10 desalting)
B4: HypT^C25S (natural protein, E. coli, UniProt P39376 1-303, looked up)
chain: MDDCGAILHNIETKWLYDFLTLEKSRNFSQAAVSRNVSQPAFSRRIRALEQAIGVELFNRQVTPLQLSEQGKIFHSQIRHLLQQLESNLAELRGGSDYAQRKIKIAAAHSLSLGLLPSIISQMPPLFTWAIEAIDVDEAVDKLREGQSDCIFSFHDEDLLEAPFDHIRLFESQLFPVCASDEHGEALFNLAQPHFPLLNYSRNSYMGRLINRTLTRHSELSFSTFFVSSMSELLKQVALDGCGIAWLPEYAIQQEIRSGKLVVLNRDELVIPIQAYAYRMNTRMNPVAERFWRELRELEIVLS
notes: HypT (YjiE) of E. coli, single mutant C25S; source: E. coli BL21 (DE3) gold, pET28a, purified (HisTrap, PD10 desalting)
B5: HypT^5C→S (natural protein, E. coli, UniProt P39376 1-303, looked up)
chain: MDDSGAILHNIETKWLYDFLTLEKSRNFSQAAVSRNVSQPAFSRRIRALEQAIGVELFNRQVTPLQLSEQGKIFHSQIRHLLQQLESNLAELRGGSDYAQRKIKIAAAHSLSLGLLPSIISQMPPLFTWAIEAIDVDEAVDKLREGQSDSIFSFHDEDLLEAPFDHIRLFESQLFPVSASDEHGEALFNLAQPHFPLLNYSRNSYMGRLINRTLTRHSELSFSTFFVSSMSELLKQVALDGSGIAWLPEYAIQQEIRSGKLVVLNRDELVIPIQAYAYRMNTRMNPVAERFWRELRELEIVLS
notes: also called cysteine-free HypT mutant; source: E. coli BL21 (DE3) gold, pET28a, purified (HisTrap, PD10 desalting)
B6: HypT^quadrupleC150 (natural protein, E. coli, UniProt P39376 1-303, looked up)
chain: MDDSGAILHNIETKWLYDFLTLEKSRNFSQAAVSRNVSQPAFSRRIRALEQAIGVELFNRQVTPLQLSEQGKIFHSQIRHLLQQLESNLAELRGGSDYAQRKIKIAAAHSLSLGLLPSIISQMPPLFTWAIEAIDVDEAVDKLREGQSDCIFSFHDEDLLEAPFDHIRLFESQLFPVSASDEHGEALFNLAQPHFPLLNYSRNSYMGRLINRTLTRHSELSFSTFFVSSMSELLKQVALDGSGIAWLPEYAIQQEIRSGKLVVLNRDELVIPIQAYAYRMNTRMNPVAERFWRELRELEIVLS
notes: HypT (YjiE) of E. coli, quadruple mutant: four cysteines replaced by serine, Cys150 left intact; source: E. coli BL21 (DE3) gold, pET28a, purified (HisTrap, PD10 desalting)
B7: HypT^C150S (natural protein, E. coli, UniProt P39376 1-303, looked up)
chain: MDDCGAILHNIETKWLYDFLTLEKCRNFSQAAVSRNVSQPAFSRRIRALEQAIGVELFNRQVTPLQLSEQGKIFHSQIRHLLQQLESNLAELRGGSDYAQRKIKIAAAHSLSLGLLPSIISQMPPLFTWAIEAIDVDEAVDKLREGQSDSIFSFHDEDLLEAPFDHIRLFESQLFPVCASDEHGEALFNLAQPHFPLLNYSRNSYMGRLINRTLTRHSELSFSTFFVSSMSELLKQVALDGCGIAWLPEYAIQQEIRSGKLVVLNRDELVIPIQAYAYRMNTRMNPVAERFWRELRELEIVLS
notes: HypT (YjiE) of E. coli, single mutant C150S; source: E. coli BL21 (DE3) gold, pET11a, purified (HisTrap, PD10 desalting)

What was measured:
[1] = molecular target: the molecule itself; assay: AUC; sedimentation velocity, 4 to 10 µM protein, absorbance at 280 nm, 10 mM NaH2PO4, 400 mM NaCl, 5% glycerin, pH 7.5; c(S) method (SedFit)
[2] = molecular target: the molecule itself; assay: cross-linking; disulfide formed on oxidation: purified, reduced protein treated with HOCl (25 µM), NH2Cl (25 µM) or H2O2 (1 mM), then non-reducing SDS-PAGE; disulfide-linked dimer at ca. 64 kDa, mostly reduced again by 1 mM TCEP

Protein | binding result [2] | other results
B1 | – | stoichiometry N [1]: 12
B2 | binds | –
B3 | binds | –
B4 | binds | –
B5 | – | stoichiometry N [1]: 4
B6 | – | binding result [1]: binds
B7 | binds | –
